These results are taken from FireProtDB (doi:10.1021/tx3002115).

B1: DNA polymerase IV, Q97W02 (parent)
chain: MIVLFVDFDYFYAQVEEVLNPSLKGKPVVVCVFSGRFEDSGAVATANYEARKFGVKAGIPIVEAKKILPNAVYLPMRKEVYQQVSSRIMNLLREYSEKIEIASIDEAYLDISDKVRDYREAYNLGLEIKNKILEKEKITVTVGISKNKVFAKIAADMAKPNGIKVIDDEEVKRLIRELDIADVPGIGNITAEKLKKLGINKLVDTLSIEFDKLKGMIGEAKAKYLISLARDEYNEPIRTRVRKSIGRIVTMKRNSRNLEEIKPYLFRAIEESYYKLDKRIPKAIHVVAVTEDLDIVSRGRTFPHGISKETAYSESVKLLQKILEEDERKIRRIGVRFSKFIEAIGLDKFFDT

The data set covers variants of B1. The following applies: Saccharolobus solfataricus (strain ATCC 35092 / DSM 1617 / JCM 11322 / P2); pH 7.5; Thermal; CD; Na3PO4; NaCl MgCl2 50000 5000; structure 2RDI; whole UniProt chain shown.

Turning to MIVLFVDFDYFYAQVEEVLNPSLKGKPVVVCVFSGRFEDSGAVATANYEARKFGVKAGIPIVEAKKILPNAVYLPMRKEVYQQVSSRIMNLLREYSEKIEIASIDEAYLDISDKVRDYREAYNLGLEIKNKILEKEKITVTVGISKNAVFAKIAADMAKPNGIKVIDDEEVKRLIRELDIADVPGIGNITAEKLKKLGINKLVDTLSIEFDKLKGMIGEAKAKYLISLARDEYNAPIRTAVRKSIGRIVTMKRNSRNLEEIKPYLFRAIEESYYKLDKRIPKAIHVVAVTEDLDIVSRGRTFPHGISKETAYSESVKLLQKILEEDERKIRRIGVRFSKFIEAIGLDKFFDT [K148A E235A R240A], the melting temperature (Tm) was 90.3 °C and the “unfolding enthalpy (calorimetric)” value turned out to be 172 kcal/mol.
Taken in the same sequence, the figures for MIVLFVDFDYFYAQVEEVLNPSLKGKPVVVCVFSGRFEDSGAVATANYEARKFGVKAGIPIVEAKKILPNAVYLPMRKEVYQQVSSRIMNLLREYSEKIAIASIDEAYLDISDKVRDYREAYNLGLEIKNKILEKEKITVTVGISKNAVFAKIAADMAKPNGIKVIDDEEVKRLIRELDIADVPGIGNITAEKLKKLGINKLVDTLSIEFDKLKGMIGEAKAKYLISLARDEYNAPIRTAVRKSIGRIVTMKRNSRNLEEIKPYLFRAIEESYYKLDKRIPKAIHVVAVTEDLDIVSRGRTFPHGISKETAYSESVKLLQKILEEDERKIRRIGVRFSKFIEAIGLDKFFDT [E100A K148A E235A R240A] were 90 °C and 163 kcal/mol.
As for MIVLFVDFDYFYAQVEEVLNPSLKGKPVVVCVFSGRFEDSGAVATANYEARKFGVKAGIPIVEAKKILPNAVYLPMRKEVYQQVSSRIMNLLREYSEKIAIASIDEAYLDISDKVRDYREAYNLGLEIKNKILEKEKITVTVGISKNKVFAKIAADMAKPNGIKVIDDEEVKRLIRELDIADVPGIGNITAEKLKKLGINKLVDTLSIEFDKLKGMIGEAKAKYLISLARDEYNAPIRTAVRKSIGRIVTMKRNSRNLEEIKPYLFRAIEESYYKLDKRIPKAIHVVAVTEDLDIVSRGRTFPHGISKETAYSESVKLLQKILEEDERKIRRIGVRFSKFIEAIGLDKFFDT [E100A E235A R240A], the Tm stood at 88.3 °C and the “unfolding enthalpy (calorimetric)” value amounted to 193 kcal/mol.
Take MIVLFVDFDYFYAQVEEVLNPSLKGKPVVVCVFSGRFEDSGAVATANYEARKFGVKAGIPIVEAKKILPNAVYLPMRKEVYQQVSSRIMNLLREYSEKIEIASIDEAYLDISDKVRDYREAYNLGLEIKNKILEKEKITVTVGISKNKVFAKIAADMAKPNGIKVIDDEEVKRLIRELDIADVPGIGNITAEKLKKLGINKLVDTLSIEFDKLKGMIGEAKAKYLISLARDEYNAPIRTAVRKSIGRIVTMKRNSRNLEEIKPYLFRAIEESYYKLDKRIPKAIHVVAVTEDLDIVSRGRTFPHGISKETAYSESVKLLQKILEEDERKIRRIGVRFSKFIEAIGLDKFFDT [E235A R240A]: the Tm was 90.3 °C and the “unfolding enthalpy (calorimetric)” value stood at 125 kcal/mol.
Consider MIVLFVDFDYFYAQVEEVLNPSLKGKPVVVCVFSGRFEDSGAVATANYEARKFGVKAGIPIVEAKKILPNAVYLPMRKEVYQQVSSRIMNLLREYSEKIAIASIDEAYLDISDKVRDYREAYNLGLEIKNKILEKEKITVTVGISKNAVFAKIAADMAKPNGIKVIDDEEVKRLIRELDIADVPGIGNITAEKLKKLGINKLVDTLSIEFDKLKGMIGEAKAKYLISLARDEYNEPIRTRVRKSIGRIVTMKRNSRNLEEIKPYLFRAIEESYYKLDKRIPKAIHVVAVTEDLDIVSRGRTFPHGISKETAYSESVKLLQKILEEDERKIRRIGVRFSKFIEAIGLDKFFDT [E100A K148A], for which the Tm stood at 89.4 °C and the “unfolding enthalpy (calorimetric)” value turned out to be 135 kcal/mol.
Regarding MIVLFVDFDYFYAQVEEVLNPSLKGKPVVVCVFSGRFEDSGAVATANYEARKFGVKAGIPIVEAKKILPNAVYLPMRKEVYQQVSSRIMNLLREYSEKIEIASIDEAYLDISDKVRDYREAYNLGLEIKNKILEKEKITVTVGISKNKVFAKIAADMAKPNGIKVIDDEEVKRLIRELDIADVPGIGNITAEKLKKLGINKLVDTLSIEFDKLKGMIGEAKAKYLISLARDEYNEPIRTAVRKSIGRIVTMKRNSRNLEEIKPYLFRAIEESYYKLDKRIPKAIHVVAVTEDLDIVSRGRTFPHGISKETAYSESVKLLQKILEEDERKIRRIGVRFSKFIEAIGLDKFFDT [R240A], the Tm was found to be 96.5 °C and the “unfolding enthalpy (calorimetric)” value amounted to 93 kcal/mol.
